From patent US20250243471A1

Assays:
[1] = biological target: PhiV-1 gp8 portal protein (coliphage PhiV-1); assay: cryo-EM structure of the EcAvs4-portal complex
[2] = biological target: EcAvs4 Q63A/K65A with internal TwinStrep tag between residues 114 and 115 (cryo-EM construct) (Escherichia coli NCTC11132); assay: cryo-EM; interface between adjacent STAND ATPase domains in the portal-bound EcAvs4 tetramer
[3] = biological target: PhiV-1 gp8 portal protein (coliphage PhiV-1); assay: cell-based or functional assay
[4] = biological target: PhiV-1 gp19 large terminase subunit (coliphage PhiV-1); assay: cell-based or functional assay
[5] = biological target: SeAvs3 from Salmonella enterica NCTC13175 with C-terminal 6xHis tag (purified recombinant) (Salmonella enterica NCTC13175); assay: cryo-EM; interface between adjacent STAND ATPase domains in the terminase-bound SeAvs3 tetramer
[6] = biological target: PhiV-1 gp19 large terminase subunit (coliphage PhiV-1); assay: cryo-EM structure of the SeAvs3-terminase complex
[7] = biological target: PhiV-1 gp19 terminase with StrepTag (gp19-StrepTag) (coliphage PhiV-1); assay: tandem affinity purification (Ni-NTA, Strep-Tactin), Superose 6 Increase peak, SDS-PAGE band intensity

“EcAvs4 Q63A/K65A with internal TwinStrep tag between residues 114 and 115 (cryo-EM construct) (receptor)” showed a buried solvent-accessible surface area [1] of 5800 Å2 and a buried surface area [2] of 1230 Å^2.

“EcAvs4 from Escherichia coli NCTC11132 expressed in E. coli (genetic assays) (receptor)” gave an Abundance relative to E. coli NovaBlue control (PhiV-1 fragment screen, deep sequencing of surviving plasmids) [3] of less than 0.0001 and an Abundance relative to E. coli NovaBlue control (PhiV-1 fragment screen, deep sequencing of surviving plasmids) [4] of 0.11.

Work on “SeAvs3 from Salmonella enterica NCTC13175 expressed in E. coli (genetic assays) (receptor)” yielded an Abundance relative to E. coli NovaBlue control (PhiV-1 fragment screen, deep sequencing of surviving plasmids) [3] of 0.65 and an Abundance relative to E. coli NovaBlue control (PhiV-1 fragment screen, deep sequencing of surviving plasmids) [4] of less than 0.0001.

Substance “SeAvs3 from Salmonella enterica NCTC13175 with C-terminal 6xHis tag (purified recombinant) (receptor)” has a buried surface area [5] of 436 Å^2, a buried solvent-accessible surface area [6] greater than 3700 Å2 and a ratio of SeAvs3 and gp19 in the complex peak (SeAvs3:gp19 ratio) [7] of 1.
